The term Kd denotes a measure of binding affinity in units of concentration. A word on the IC50: it is the concentration that inhibits the measured activity by half. A lower IC50 goes with greater potency in that assay.

The target of assay [1] is T1, RMI core complex (RMI1 OB2 domain with RMI2) (Homo sapiens, UniProt Q96E14+Q9H9A7).
T1 sequence (Q9H9A7 473-625 limits assumed): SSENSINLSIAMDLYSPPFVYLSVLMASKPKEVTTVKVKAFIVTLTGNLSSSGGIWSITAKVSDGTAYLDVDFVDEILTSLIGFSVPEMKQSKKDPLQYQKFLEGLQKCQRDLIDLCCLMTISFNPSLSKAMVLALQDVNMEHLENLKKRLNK
T1 sequence (Q96E14 1-147): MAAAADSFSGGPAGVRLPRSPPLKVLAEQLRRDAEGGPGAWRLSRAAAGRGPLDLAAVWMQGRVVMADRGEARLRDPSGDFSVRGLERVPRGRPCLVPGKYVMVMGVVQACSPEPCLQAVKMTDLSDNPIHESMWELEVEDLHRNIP
Briefly: ITC. In kind it is binding.

For assay [2], the target named is RMI core complex (OB2 domain of RMI1 and the entirety of RMI2) (UniProt Q96E14). Briefly: fluorescence polarisation. (In general: Polarisation of emitted light reports the rotation of a fluorescent probe.)
Assay [3] deals with RMI core complex with a N-terminal 6X-His tagged RMI2 (UniProt Q96E14). Nature of the assay: AlphaScreen or HTRF. (Alpha assays give light when donor and acceptor beads are brought close together.)
For assay [4], the target named is F-MM2 MM2 (Homo sapiens) (UniProt Q8IYD8). Nature of the assay: FP. The following applies: cited from earlier work.

The molecule `CCOC(=O)N1CCN(C(c2ccccn2)c2c(-c3ccccc3)n(O)c3ccccc23)CC1` (stereo not shown) [PIP-199] gave a Kd in assay [1] of 3400 ± 1000 nM.
With MM2 peptide from FANCM (unlabeled), the IC50 in assay [2] came out at 510 nM; in assay [3] it was 180 nM.
For the molecule “RMI core complex core complex (from UniProt Q9H9A7)”, the Kd in assay [4] was under 5 nM.
